Experimental findings from article PMC8907715, “Selection and identification of high‐affinity aptamer of Kunitz trypsin inhibitor and their application in rapid and specific detection” are described below.

T1: Kunitz trypsin inhibitor (KTI) (UniProt P01070)
T1 sequence: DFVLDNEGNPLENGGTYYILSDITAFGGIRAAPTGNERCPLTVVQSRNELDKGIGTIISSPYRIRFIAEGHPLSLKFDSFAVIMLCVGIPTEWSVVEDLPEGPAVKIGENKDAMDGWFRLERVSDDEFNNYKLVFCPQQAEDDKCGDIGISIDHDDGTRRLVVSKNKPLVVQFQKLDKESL

T2: Kunitz trypsin inhibitor (KTI) (UniProt P01070 25-205)
T2 sequence: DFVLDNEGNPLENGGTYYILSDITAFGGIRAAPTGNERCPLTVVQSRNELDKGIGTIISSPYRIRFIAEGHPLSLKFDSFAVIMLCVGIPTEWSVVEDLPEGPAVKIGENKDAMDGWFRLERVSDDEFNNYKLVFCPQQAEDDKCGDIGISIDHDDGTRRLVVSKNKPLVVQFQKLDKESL

The first series deals with T1, Kunitz trypsin inhibitor (KTI). The series is described as follows: GO fluorescence assay. The settings on record: FAM-aptamer 0-600 nM with GO 60 min, then 1 uM KTI 2 h at room temperature in the dark; assay buffer, salt and pH not stated (oligos dissolved in TE pH 8.0).
A word on the Kd: it is the equilibrium constant for the complex coming apart. As for “TCTGGCTTCTGATCTGATGTTTTTACTATCGGTATTTCTA [Akti-15]”, the Kd is 67.9 nM.
Still for that read-out and setting: for “CTGGTGTTTTCTTTACGCATAACAAGGCCCCTGAGAGGCT [Akti-9]” the value was 134 nM; for “TGTACCGCCCACCTGCCGCTAACGGCGGTGCTGCGGTGCG [Akti-28]”, 164 nM; for “GGTCGTGAGGCCCACCGCTGAGCTCTAGTATCGCTCGGCG [Akti-11]”, 116 nM.
On the same count and under the same terms, for “CCAACCTGTGGCATTTGGTAACTTGATCTTACGGTGTTCG [Akti-10]” the value was 22.6 nM.

The target of the next series is T2, Kunitz trypsin inhibitor (KTI). The series is described as follows: GO fluorescence assay; text gives 52.6 ± 11.4; FAM-aptamer 0-600 nM with GO 60 min, then 1 uM KTI 2 h at room temperature in the dark; assay buffer, salt and pH not stated (oligos dissolved in TE pH 8.0). The settings on record: protein: commercial; label: 5'-FAM.
For CTTCGTATCCTGTGCTGCAGTTGTTTTTAAGTGCTGGGAG (ssDNA) [Akti-5], the Kd turned out to be 52.5 ± 11.3 nM.
